Source: patent publication US20230287120A1 (ALLOGENE THERAPEUTICS, published 2023)

T1: EGF5-EGF6
T1 construct: also called Human DLL3 EGF5-EGF6, N-terminal HA tag, on CHO cells
T1 single chain: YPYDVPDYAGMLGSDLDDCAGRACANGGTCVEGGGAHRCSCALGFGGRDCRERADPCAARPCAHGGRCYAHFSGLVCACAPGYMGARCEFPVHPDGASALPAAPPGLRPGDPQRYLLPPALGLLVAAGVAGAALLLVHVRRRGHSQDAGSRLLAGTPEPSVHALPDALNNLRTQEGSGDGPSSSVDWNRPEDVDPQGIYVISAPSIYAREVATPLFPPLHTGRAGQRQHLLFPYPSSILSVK

T2: EGF6
T2 construct: also called Human DLL3 EGF6, N-terminal HA tag, on CHO cells
T2 single chain: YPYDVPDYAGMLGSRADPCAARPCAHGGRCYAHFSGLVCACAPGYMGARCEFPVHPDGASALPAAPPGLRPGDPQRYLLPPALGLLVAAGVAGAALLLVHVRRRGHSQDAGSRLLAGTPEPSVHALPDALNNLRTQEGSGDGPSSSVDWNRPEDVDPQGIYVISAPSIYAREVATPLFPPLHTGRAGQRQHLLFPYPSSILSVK

T3: human DLL3 extracellular domain (ECD) with C-terminal 8xHis tag and Avi tag (human, UniProt Q9NYJ7 27-492)
T3 construct: extracellular domain; Expressed in Expi293, purified by IMAC and SEC; also called huDLL3; not shown: Avi tag
T3 sequence: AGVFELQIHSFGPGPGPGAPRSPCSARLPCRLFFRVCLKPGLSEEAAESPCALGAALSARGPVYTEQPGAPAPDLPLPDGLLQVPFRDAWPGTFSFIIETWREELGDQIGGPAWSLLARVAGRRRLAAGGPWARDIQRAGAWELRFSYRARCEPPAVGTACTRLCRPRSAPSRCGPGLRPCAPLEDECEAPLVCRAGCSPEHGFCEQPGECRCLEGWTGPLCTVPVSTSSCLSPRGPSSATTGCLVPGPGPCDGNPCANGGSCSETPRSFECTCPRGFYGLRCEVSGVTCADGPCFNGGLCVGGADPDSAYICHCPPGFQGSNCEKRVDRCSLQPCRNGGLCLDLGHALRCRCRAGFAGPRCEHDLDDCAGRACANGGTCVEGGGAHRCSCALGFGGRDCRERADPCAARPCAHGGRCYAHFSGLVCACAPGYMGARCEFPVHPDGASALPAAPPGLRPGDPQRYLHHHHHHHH

T4: EGF2-EGF6
T4 construct: also called Human DLL3 EGF2-EGF6, N-terminal HA tag, on CHO cells
T4 single chain: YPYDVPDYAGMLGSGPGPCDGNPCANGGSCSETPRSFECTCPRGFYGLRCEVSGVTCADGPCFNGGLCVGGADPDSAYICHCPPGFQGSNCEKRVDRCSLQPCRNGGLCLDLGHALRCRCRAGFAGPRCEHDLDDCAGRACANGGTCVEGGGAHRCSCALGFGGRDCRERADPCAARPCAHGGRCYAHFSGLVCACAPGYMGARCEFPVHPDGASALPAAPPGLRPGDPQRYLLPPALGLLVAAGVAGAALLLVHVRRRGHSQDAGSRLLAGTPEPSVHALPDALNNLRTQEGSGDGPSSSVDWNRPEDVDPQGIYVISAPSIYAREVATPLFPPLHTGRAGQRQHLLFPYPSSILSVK

T5: EGF1-EGF6
T5 construct: also called Human DLL3 EGF1-EGF6, N-terminal HA tag, on CHO cells
T5 single chain: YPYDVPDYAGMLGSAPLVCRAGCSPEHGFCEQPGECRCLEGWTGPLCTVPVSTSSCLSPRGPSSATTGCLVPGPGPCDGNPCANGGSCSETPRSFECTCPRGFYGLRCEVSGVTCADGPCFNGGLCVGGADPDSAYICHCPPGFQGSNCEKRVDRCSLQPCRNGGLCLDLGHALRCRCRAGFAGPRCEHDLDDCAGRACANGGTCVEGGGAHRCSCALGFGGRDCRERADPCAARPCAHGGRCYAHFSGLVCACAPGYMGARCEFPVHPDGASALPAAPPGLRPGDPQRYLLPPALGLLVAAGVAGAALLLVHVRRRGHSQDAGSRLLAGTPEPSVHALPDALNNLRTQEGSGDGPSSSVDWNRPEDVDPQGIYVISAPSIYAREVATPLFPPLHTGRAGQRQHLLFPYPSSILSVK

T6: DSL-EGF6
T6 construct: also called Human DLL3 DSL-EGF6, N-terminal HA tag, on CHO cells
T6 single chain: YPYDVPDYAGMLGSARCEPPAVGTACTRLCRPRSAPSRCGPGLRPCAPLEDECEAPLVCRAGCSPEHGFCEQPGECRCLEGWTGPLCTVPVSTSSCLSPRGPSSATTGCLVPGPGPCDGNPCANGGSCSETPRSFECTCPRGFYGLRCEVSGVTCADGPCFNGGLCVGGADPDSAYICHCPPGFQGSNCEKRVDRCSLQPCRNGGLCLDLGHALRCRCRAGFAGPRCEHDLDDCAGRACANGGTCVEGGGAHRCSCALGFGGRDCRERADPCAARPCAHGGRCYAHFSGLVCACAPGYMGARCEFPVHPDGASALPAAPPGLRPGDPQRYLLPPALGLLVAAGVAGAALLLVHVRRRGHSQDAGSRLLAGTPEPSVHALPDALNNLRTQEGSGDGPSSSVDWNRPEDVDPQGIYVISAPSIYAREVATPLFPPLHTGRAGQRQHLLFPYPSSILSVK

T7: EGF4-EGF6
T7 construct: also called Human DLL3 EGF4-EGF6, N-terminal HA tag, on CHO cells
T7 single chain: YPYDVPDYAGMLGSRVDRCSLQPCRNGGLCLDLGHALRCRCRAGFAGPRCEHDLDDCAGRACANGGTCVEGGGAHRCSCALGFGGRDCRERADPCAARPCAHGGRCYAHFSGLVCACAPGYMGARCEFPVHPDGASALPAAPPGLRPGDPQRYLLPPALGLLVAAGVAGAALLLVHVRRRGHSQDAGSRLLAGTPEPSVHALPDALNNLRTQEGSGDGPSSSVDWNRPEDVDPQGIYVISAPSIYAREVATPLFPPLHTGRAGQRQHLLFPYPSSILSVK

T8: EGF3-EGF6
T8 construct: also called Human DLL3 EGF3-EGF6, N-terminal HA tag, on CHO cells
T8 single chain: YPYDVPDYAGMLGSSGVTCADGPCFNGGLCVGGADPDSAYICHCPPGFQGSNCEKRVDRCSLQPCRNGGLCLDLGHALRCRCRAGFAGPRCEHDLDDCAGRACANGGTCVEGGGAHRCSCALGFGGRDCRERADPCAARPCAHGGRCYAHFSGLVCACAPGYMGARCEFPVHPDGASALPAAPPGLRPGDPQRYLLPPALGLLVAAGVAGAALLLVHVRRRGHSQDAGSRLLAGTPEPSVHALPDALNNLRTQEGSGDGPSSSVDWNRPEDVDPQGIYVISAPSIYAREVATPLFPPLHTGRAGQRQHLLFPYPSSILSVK


Experiments:
EGF5-EGF6 = molecular target: T1, EGF5-EGF6; assay: flow cytometry on CHO cells with the HA tagged DLL3 construct, PE anti-mouse IgG
Experimental: (§1) The samples were analyzed by flow cytometry. […] Signals from the PE channel are shown on the x-axis and counts are shown on the y-axis.

EGF6 = molecular target: T2, EGF6; assay: as above
Experimental: as §1

[1] = molecular target: T3, human DLL3 extracellular domain (ECD) …; assay: SPR (Biacore), 37 C; IgG captured on chip, human DLL3 ECD in solution; 1:1 Langmuir fit
Experimental: The antibody binding kinetics were determined by surface plasmon resonance (Biacore™ surface plasmon resonance (SPR) system, GE Healthcare Bio-Sciences, Pittsburgh Pa.). The antibodies diluted in HBS-T+ running buffer (0.01 M HEPES pH 7.4, 0.15 M NaCl, 0.05% v/v Tween20, 1 mg/mL BSA) were captured on a CM4 chip immobilized with an antibody specific for the anti-DLL3 antibody constant domains. Purified DLL3 was serially diluted into HBS-T+, injected for 2 min at 30 uL/min and a dissociation time of 10 min then the surface regenerated with either 10 mM Glycine-HCl pH 1.7 or phosphoric acid between injections. […] Equilibrium dissociation constant (Kd) values are calculated as koff/kₒₙ.

EGF2-EGF6 = molecular target: T4, EGF2-EGF6; assay: flow cytometry on CHO cells with the HA tagged DLL3 construct, PE anti-mouse IgG
Experimental: as §1

EGF1-EGF6 = molecular target: T5, EGF1-EGF6; assay: as above
Experimental: as §1

DSL-EGF6 = molecular target: T6, DSL-EGF6; assay: as above
Experimental: as §1

EGF4-EGF6 = molecular target: T7, EGF4-EGF6; assay: as above
Experimental: as §1

EGF3-EGF6 = molecular target: T8, EGF3-EGF6; assay: as above
Experimental: as §1

Row | binding result (EGF5-EGF6) | binding result (EGF6) | Kd [1] | binding result (EGF2-EGF6) | binding result (EGF1-EGF6) | binding result (DSL-EGF6) | binding result (EGF4-EGF6) | binding result (EGF3-EGF6) | Binder
1 | no binding | no binding | 5.54 nM | binds | binds | binds | no binding | binds | anti-DLL3 antibody 26C8 (IgG) (antibody, V domains shown, Full-length monoclonal antibody (IgG)) VH: QVQLQESGPGLVKPSETLSLTCTVSDNSISNYYWSWIRQPPGKGLEWIAYIYYSGTTNYNPSLKSRVTISLDTSKNQFSLQLSSVTAADAAVYYCARVFHWGFAFDIWGQGTMVTVSS VL: EIVLTQSPGTLSLSPGERATLSCRASQRVSNTYLAWYQQNPGQAPRLLIYGASSRATGIPDRFSGSGSGTDFTLTISRLEPEDFAVYYCQQYGTSPLTFGGGTKVEIK
2 | no binding | no binding | < 1.42 nM | no binding | binds | binds | no binding | no binding | anti-DLL3 antibody 6D8 (IgG) (antibody, V domains shown, Full-length monoclonal antibody (IgG)) VH: QITLKESGPTLVKPTQTLTLTCTFSGFSLSTRGVGVGWIRQPPGKALEWLALIYWNDDKRYSPSLQTRLTITKDTPKNQVVLTMTNMDPVDTATYYCARSNWGNWYFALWGRGTLVTVSS VL: EIVLTQSPATLSLSPGERATLSCRASQSVSSYLAWYQQKPGQAPRLLIYDAFYRATGIPARFSGSGSGTDFTLTISSLEPEDFAVYYCQHRSNWPITFGQGTRLEIK
3 | no binding | no binding | 7.76 nM | no binding | no binding | binds | no binding | no binding | anti-DLL3 antibody 5E12 (IgG) (antibody, V domains shown, Full-length monoclonal antibody (IgG)) VH: EVQLVESGGGLVQPGGSLRLSCAASGFTFSSYDMHWVRQATGKGLEWVSAIGPAGDTYYPGSVKGRFTISRENAKNSLYLQMNSLRAGDTAVYYCARADPPYYYYGMDVWGQGTTVTVSS VL: not shown
